Results on seven molecules are retold here after patent publication US20160237414A1 (CHILDREN S HOSPITAL MEDICAL CENTER, published 2016).

What is called EC50 is the concentration at which the effect is half-maximal. Low values mean higher potency in that assay, high ones lower potency in that assay.

Primed or numbered codes have the meaning given here. No end group written: not given here. FITC′ = fluorescein isothiocyanate (fluorescent probe) Where only a bound is given, the exact number is not on record here.

For test [1], the target named is T1, LIMP-2 in Gba1-/- fibroblasts (endogenous, detected by anti-LIMP2 immunofluorescence) (UniProt O35114 1-478, limits assumed).
T1 sequence (looked up): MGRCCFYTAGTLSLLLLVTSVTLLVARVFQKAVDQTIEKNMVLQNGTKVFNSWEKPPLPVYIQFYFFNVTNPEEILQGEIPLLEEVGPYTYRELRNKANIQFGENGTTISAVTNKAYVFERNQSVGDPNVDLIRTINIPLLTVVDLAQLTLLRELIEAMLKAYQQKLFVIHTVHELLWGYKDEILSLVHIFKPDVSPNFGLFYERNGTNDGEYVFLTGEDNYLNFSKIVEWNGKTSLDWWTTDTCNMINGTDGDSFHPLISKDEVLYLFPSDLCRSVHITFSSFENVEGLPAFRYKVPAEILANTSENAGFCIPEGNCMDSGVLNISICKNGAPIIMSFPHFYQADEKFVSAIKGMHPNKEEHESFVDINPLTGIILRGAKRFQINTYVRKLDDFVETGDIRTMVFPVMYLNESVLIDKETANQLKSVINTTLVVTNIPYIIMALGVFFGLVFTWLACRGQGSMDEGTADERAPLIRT
Nature of the test: cell-based or functional assay.

The target of test [2] is T2, Purified luminal domain LIMP-2 (ld-LIMP2) (UniProt Q14108 28-433, limits assumed).
T2 construct: domain: luminal domain; also called LIMP-2/SCARB2
T2 sequence (looked up): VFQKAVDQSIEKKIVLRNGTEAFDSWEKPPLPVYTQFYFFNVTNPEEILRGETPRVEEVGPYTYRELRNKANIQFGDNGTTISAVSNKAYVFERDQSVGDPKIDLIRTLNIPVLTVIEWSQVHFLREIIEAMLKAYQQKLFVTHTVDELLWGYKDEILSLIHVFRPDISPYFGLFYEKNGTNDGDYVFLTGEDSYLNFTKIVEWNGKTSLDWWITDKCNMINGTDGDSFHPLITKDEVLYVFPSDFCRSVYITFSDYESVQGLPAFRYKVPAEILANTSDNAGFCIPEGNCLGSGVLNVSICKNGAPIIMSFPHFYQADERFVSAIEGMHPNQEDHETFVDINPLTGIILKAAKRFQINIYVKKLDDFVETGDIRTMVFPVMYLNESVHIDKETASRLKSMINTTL
Nature of the test: in vitro immunoprecipitation of purified GCase with ldLIMP-2 (1:1) on anti-LIMP2 beads, immunoblot (FIG. 6B). The text has this:
Immunoprecipitation of GCases with mutations in the TKD sequence: For immunoblots, Gba1 knockout mouse fibroblasts (null/null) were transfected with the GBA1 constructs (WT or mutants) and expressed for 5 days. The GCases from harvested cell lysates were purified using a GCase antibody affinity column (Dynabeads protein G crosslinked (BS3) with rabbit anti-human GCase antibody). […] Aliquots of each step (loading, wash and eluent) were collected and analyzed on 12.5% SDS gels. Immunoblots were developed using anti-human GCase antibody and AP conjugated color development kits. Mock experiments with either non-LIMP2 proteins added or no GCases added, were used as control. The quantitations of these immunoprecipitation data were obtained from densitometry measurements of the gels. The no-LIMP-2 bars are the controls for comparison, since GCase was processed through all steps without LIMP-2 to account for any losses of GCase; About 50% of the GCase was lost during processing.
For orientation: In western blotting, separated proteins are transferred to a membrane and probed.

The target of test [3] is T2, Purified luminal domain LIMP-2 …. Nature of the test: fluorescence polarization, FITC peptide titrated, ldLIMP2 fixed at 50 nM (FIG. 7A). As to the method: FIG. 7A-FIG. 7C: Binding and competition of fluorescent labeled or unlabeled DSPIIV (SEQ ID NO 15) GCase peptides to ldLIMP2. The change (δmP) in fluorescence polarization is plotted on the ordinate and the increasing concentrations of the various peptides are on the abscissa. FIG. 7A depicts saturation kinetics under conditions in which the concentration of ldLIMP2 (50 nM) was fixed. […] FIG. 7B depicts a similar study using unlabeled peptides as competitors. […] Each of the unlabeled peptides “competed” with the labeled peptides in the expected ratios. FIG. 7C depicts a competition study in which labeled (WT*) and unlabeled (WT) peptides were used in complementary competition studies.
Fluorescence Polarization: The DSPIIV (SEQ ID NO 15) and its mutants, and DDQRLLL (SEQ ID NO 14) peptides (FITC labeled or non-labeled) were synthesized (American Peptide Co., Vista, Calif.). Lyophilized peptides were solubilized in acetonitrile and then were diluted at least 10,000-fold into the reactions for fluorescence polarization assessments. The reactions were done at least in duplicate at various peptide and LIMP-2 concentrations (SpectraMax M5, Molecular Device). Fluorescence polarization data were collected and analyzed with SoftMax Pro 5.0 software. Reaction mixtures contained 100 mM phosphate, pH 6.8 and 1 mM DTT.

Test [4] has the same target. Nature of the test: peptide binding to ldLIMP2 at pH 6.8 (FIG. 9).
Test [5] shares this target. Nature of the test: peptide binding to ldLIMP-2 at pH 6.8 (FIG. 9).

B1: ASPIIV (SEQ ID NO 16) (D399A) GCase (enzyme)
chain: ARPCIPKSFGYSSVVCVCNATYCDSFDPPTFPALGTFSRYESTRSGRRMELSMGPIQANHTGTGLLLTLQPEQKFQKVKGFGGAMTDAAALNILALSPPAQNLLLKSYFSEEGIGYNIIRVPMASCDFSIRTYTYADTPDDFQLHNFSLPEEDTKLKIPLIHRALQLAQRPVSLLASPWTSPTWLKTNGAVNGKGSLKGQPGDIYHQTWARYFVKFLDAYAEHKLQFWAVTAENEPSAGLLSGYPFQCLGFTPEHQRDFIARDLGPTLANSTHHNVRLLMLDDQRLLLPHWAKVVLTDPEAAKYVHGIAVHWYLDFLAPAKATLGETHRLFPNTMLFASEACVGSKFWEQSVRLGSWDRGMQYSHSIITNLLYHVVGWTDWNLALNPEGGPNWVRNFVASPIIVDITKDTFYKQPMFYHLGHFSKFIPEGSQRVGLVASQKNDLDAVALMHPDGSAVVVVLNRSSKDVPLTIKDPAVGFLETISPGYSIHTYLWRRQ
For B1, the “% Secreted” value in test [1] turned out to be 36%.

B2: DSPAIV (SEQ ID NO 17) (I402A) GCase (enzyme)
chain: ARPCIPKSFGYSSVVCVCNATYCDSFDPPTFPALGTFSRYESTRSGRRMELSMGPIQANHTGTGLLLTLQPEQKFQKVKGFGGAMTDAAALNILALSPPAQNLLLKSYFSEEGIGYNIIRVPMASCDFSIRTYTYADTPDDFQLHNFSLPEEDTKLKIPLIHRALQLAQRPVSLLASPWTSPTWLKTNGAVNGKGSLKGQPGDIYHQTWARYFVKFLDAYAEHKLQFWAVTAENEPSAGLLSGYPFQCLGFTPEHQRDFIARDLGPTLANSTHHNVRLLMLDDQRLLLPHWAKVVLTDPEAAKYVHGIAVHWYLDFLAPAKATLGETHRLFPNTMLFASEACVGSKFWEQSVRLGSWDRGMQYSHSIITNLLYHVVGWTDWNLALNPEGGPNWVRNFVDSPAIVDITKDTFYKQPMFYHLGHFSKFIPEGSQRVGLVASQKNDLDAVALMHPDGSAVVVVLNRSSKDVPLTIKDPAVGFLETISPGYSIHTYLWRRQ
For the molecule B2, the “% Secreted” value in test [1] is 22%.

B3: DSPIAV (SEQ ID NO 18) (I403A) GCase (enzyme)
chain: ARPCIPKSFGYSSVVCVCNATYCDSFDPPTFPALGTFSRYESTRSGRRMELSMGPIQANHTGTGLLLTLQPEQKFQKVKGFGGAMTDAAALNILALSPPAQNLLLKSYFSEEGIGYNIIRVPMASCDFSIRTYTYADTPDDFQLHNFSLPEEDTKLKIPLIHRALQLAQRPVSLLASPWTSPTWLKTNGAVNGKGSLKGQPGDIYHQTWARYFVKFLDAYAEHKLQFWAVTAENEPSAGLLSGYPFQCLGFTPEHQRDFIARDLGPTLANSTHHNVRLLMLDDQRLLLPHWAKVVLTDPEAAKYVHGIAVHWYLDFLAPAKATLGETHRLFPNTMLFASEACVGSKFWEQSVRLGSWDRGMQYSHSIITNLLYHVVGWTDWNLALNPEGGPNWVRNFVDSPIAVDITKDTFYKQPMFYHLGHFSKFIPEGSQRVGLVASQKNDLDAVALMHPDGSAVVVVLNRSSKDVPLTIKDPAVGFLETISPGYSIHTYLWRRQ
In the case of B3, in test [1], the “% Secreted” value was determined as 23%.

B4: DSPAAV (SEQ ID NO 19) (I402A+I403A) GCase, double mutant (enzyme)
chain: ARPCIPKSFGYSSVVCVCNATYCDSFDPPTFPALGTFSRYESTRSGRRMELSMGPIQANHTGTGLLLTLQPEQKFQKVKGFGGAMTDAAALNILALSPPAQNLLLKSYFSEEGIGYNIIRVPMASCDFSIRTYTYADTPDDFQLHNFSLPEEDTKLKIPLIHRALQLAQRPVSLLASPWTSPTWLKTNGAVNGKGSLKGQPGDIYHQTWARYFVKFLDAYAEHKLQFWAVTAENEPSAGLLSGYPFQCLGFTPEHQRDFIARDLGPTLANSTHHNVRLLMLDDQRLLLPHWAKVVLTDPEAAKYVHGIAVHWYLDFLAPAKATLGETHRLFPNTMLFASEACVGSKFWEQSVRLGSWDRGMQYSHSIITNLLYHVVGWTDWNLALNPEGGPNWVRNFVDSPAAVDITKDTFYKQPMFYHLGHFSKFIPEGSQRVGLVASQKNDLDAVALMHPDGSAVVVVLNRSSKDVPLTIKDPAVGFLETISPGYSIHTYLWRRQ
B4: the “% Secreted” value in test [1] stood at 83%.

B5: AAA GCase (triple alanine mutant in the TKD sequence, amino acids 407-409) (enzyme)
chain: ARPCIPKSFGYSSVVCVCNATYCDSFDPPTFPALGTFSRYESTRSGRRMELSMGPIQANHTGTGLLLTLQPEQKFQKVKGFGGAMTDAAALNILALSPPAQNLLLKSYFSEEGIGYNIIRVPMASCDFSIRTYTYADTPDDFQLHNFSLPEEDTKLKIPLIHRALQLAQRPVSLLASPWTSPTWLKTNGAVNGKGSLKGQPGDIYHQTWARYFVKFLDAYAEHKLQFWAVTAENEPSAGLLSGYPFQCLGFTPEHQRDFIARDLGPTLANSTHHNVRLLMLDDQRLLLPHWAKVVLTDPEAAKYVHGIAVHWYLDFLAPAKATLGETHRLFPNTMLFASEACVGSKFWEQSVRLGSWDRGMQYSHSIITNLLYHVVGWTDWNLALNPEGGPNWVRNFVDSPIIVDIAAATFYKQPMFYHLGHFSKFIPEGSQRVGLVASQKNDLDAVALMHPDGSAVVVVLNRSSKDVPLTIKDPAVGFLETISPGYSIHTYLWRRQ
notes: Made from full length pCMV-GCase-GFP or YFP vectors; also called AAA mutant
Take B5: the binding result in test [2] was “no binding”.

B6: DSPIIV (SEQ ID NO 15) GCase peptide, FITC labeled (peptide)
peptide: DSPIIV-{FITC′}
notes: also called WT peptide; WT*
For B6, in test [3], the EC50 was ~50 nM.

B7: ASPAAV peptide (triple mutant: alanines for D399, I402 and I403), FITC labeled (peptide)
peptide: ASPAAV-{FITC′}
notes: also called ASPAAP
Regarding B7, in test [4], the “binding relative to WT” value is < 10 % of WT. Moreover, the “percent decrease in binding” value in test [5] is ~90%.
